Test results: the supplement of paper PMC12042874
± gives the uncertainty stated by the source.

Assay: amyloid nucleation score (Sup35N fusion, yeast selection) (log enrichment); library NNK1; higher = more nucleation; inactive = no reads after selection
Outline: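 Growth for 7 days at 30°C on medium lacking adenine and uracil followed a 24-hour induction with 100 μM copper sulfate of psi-negative yeast expressing peptides of 20 random codons fused to Sup35N. Input and output plasmid inserts were sequenced with Illumina, and sequences with under 100 input reads were excluded. Nucleation score is the DiMSum log enrichment of output over input reads, centred on the mode score of non-aggregating sequences.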

| Substance | amyloid nucleation score |
| --- | --- |
| VVMVLSKGPDIRSNMRCSSV | -1.9 ± 1.4 |
| VVNWIASMGCIFYRVPNVSG | 4.66 ± 0.13 |
| VVQAVIR | -1.01 ± 1.7 |
| VVSDRRFYLLKFKSGVLSLV | -0.043 ± 0.31 |
| VVTRDQLYQ | -0.817 ± 1.7 |
| VVVEKLAQLNHVKAEPMVSG | 0.335 ± 0.57 |
| VVYIHFAII | 0.439 ± 0.69 |
| VWFVVGGGE | 1.7 ± 0.42 |
| VWIALFDVTDDMSARTDIWS | -0.876 ± 0.74 |
| VWISWMSRISITRLCVWGSV | 0.379 ± 0.41 |
| VWSGEE | -0.344 ± 0.38 |
| VWTMIYSTCGSDFYFCSVEL | 0.715 ± 0.47 |
| VWTYNLI | inactive |
| VWVHD | 0.257 ± 0.26 |
| VWWHYLSLYAIWYSYVRLYV | -0.097 ± 0.52 |
| VWYWLSNNLDVW | 0.809 ± 0.98 |
| VYAYTRY | 0.194 ± 0.68 |
| VYCFCQNRSSFYGKMHLGMH | 1.25 ± 0.62 |
| VYKCSQVDRVCKMAWVGLKS | 0.205 ± 0.34 |
| VYLNFTISKVEVVTFFFIMG | 0.165 ± 0.34 |
| VYLVMSVCGTRNGYKHSSQL | 0.265 ± 0.25 |
| VYNLFVEVVPILKNRLWFNY | 4.44 ± 0.094 |
| VYNWRLMEYHRGWDHFCYLS | -0.559 ± 0.33 |
| VYRDLVDAYVTDYMCWGAPG | inactive |
| VYRSHLRTNFSTFTSMSSVL | -0.626 ± 1.4 |

| Substance | amyloid nucleation score |
| --- | --- |
| VYYLIVHLHSGMLHQIVELS | 0.707 ± 0.51 |
| WAAFLVMDGWICDQAYMTMR | inactive |
| WADTPRQLGCSSSSTISCSL | -0.216 ± 0.4 |
| WAYYCYP | -2.01 ± 2.4 |
| WCHGHYHSSNEMSTI | 1.37 ± 0.69 |
| WCNRHHDWVVLLAIVAGGEV | 0.873 ± 0.64 |
| WCRRWFLLYWVCAETKFGSG | -0.367 ± 0.52 |
| WCYFVRDGVGVGEVTCPRQR | 0.273 ± 0.54 |
| WDAGVFWKMYLSTCRTSI | 0.949 ± 0.54 |
| WDLLLWSVNRDRRV | 1.47 ± 0.55 |
| WDMAFSVALGLRYMRCGLKL | -0.286 ± 0.35 |
| WDWHIGRKWV | -0.629 ± 0.62 |
| WEDSGVIFLMVCCSVYLGNL | 2.66 ± 0.12 |
| WEGLQLLGS | -0.138 ± 0.91 |
| WELMLTTH | 0.453 ± 0.33 |
| WESEFYLGLELERVAGGSGG | -1.03 ± 2.7 |
| WETGIRMFVKCRR | 0.906 ± 0.33 |
| WETVQLTGRVLFWAISYCKI | -0.178 ± 0.52 |
| WFAAHPYFNWDGGIRY | -1.41 ± 2.7 |
| WFGLQYMSWVSIESYGQAAW | 0.875 ± 0.97 |
| WFHSQVTQNYSVWLLSTNYS | -0.091 ± 0.56 |
| WFIPNKGTYREAYFLSCLGS | -0.954 ± 1.3 |
| WFMVVSRNMFCV | 0.456 ± 1.1 |
| WFNWVCCNGNAWIKDRF | 7.66 ± 0.054 |
| WFSWLVGEILCWCGGWVRSK | 0.404 ± 0.51 |

| Substance | amyloid nucleation score |
| --- | --- |
| WFWYIYM | 1.54 ± 0.19 |
| WGCRV | -0.451 ± 0.58 |
| WGKYSD | 0.343 ± 0.7 |
| WGLLLE | 4.13 ± 0.094 |
| WGNTRYGTAASVCVTEVKGS | 0.048 ± 0.4 |
| WHAHFEFNMLGILCRHFCSL | 3.19 ± 0.16 |
| WHTCYHSWSASIVLAPVSTT | -0.009 ± 0.39 |
| WIHIVYGFWSWVWGI | -0.327 ± 0.47 |
| WIILFWHYFSKYFQPLIGRS | inactive |
| WINFMSQWDPLGRQYVWHIQ | 1.81 ± 0.36 |
| WIPSFIQMDTVVRDTVNKEF | 1.09 ± 0.74 |
| WIRDDVVMGGAECCLVLNQ | 1.24 ± 0.58 |
| WISKWHYGAQSSARSKYARI | 0.864 ± 0.47 |
| WKKGRMMIKSQSGGLSQVWG | 1.05 ± 0.59 |
| WLESLARDSCSRFIDLHEWG | -0.615 ± 1.5 |
| WLEYYYCMLHDELIS | 0.109 ± 0.29 |
| WLLLNDSFSTRHLFMPRSKW | -0.381 ± 0.75 |
| WLRRCEGGKMSYSSLSTVES | -0.563 ± 0.45 |
| WLSETAAWENTYRCLRILHG | -0.446 ± 0.4 |
| WMLHMASGGTLCEEASVLVV | -0.148 ± 0.55 |
| WMNFWHLFSVFLLFSAICWF | -0.006 ± 0.61 |
| WNCKLTMADGGSAKVAPLSS | 0.38 ± 0.32 |
| WNRVWIMYGT | 1.57 ± 0.22 |
| WNYIEGASFSRMGEASNAPG | -0.944 ± 1.2 |
| WPCKAFFSSAGLRYGVNLA | -0.833 ± 0.9 |

| Substance | amyloid nucleation score |
| --- | --- |
| WPSKAQAVFTNTSTLNVSRF | inactive |
| WQTSSNGLSLKATCLTYKSF | 0.016 ± 1.7 |
| WRAMAFVYLVASWSVGIRGR | 0.07 ± 1 |
| WRFEYWFRGIHYCIYNYFC | -0.011 ± 0.89 |
| WRIMNHNVLLMLVRLGSILL | 1.18 ± 0.28 |
| WRMVAIWKNLD | -0.013 ± 0.56 |
| WRMYMYVNNPSNKHWVRRAS | -0.488 ± 0.51 |
| WSCTSCFNYGLF | 7.178 ± 0.052 |
| WSGFFFAGLWVVLCVEGGAC | 0.192 ± 0.88 |
| WSGTDRMCSVMTYS | -0.841 ± 0.51 |
| WSHADILV | inactive |
| WSKLYIAK | -0.69 ± 0.41 |
| WSLWLRRDFSR | 0.76 ± 0.61 |
| WSPNNTISNGMTKVWASGRL | 0.78 ± 0.56 |
| WSRSLVLGPLEMAHTKAVQN | -0.658 ± 1.4 |
| WSSPQEQT | -1.59 ± 1.5 |
| WSSTTNWMLRPFKCANRLGW | -0.529 ± 1.3 |
| WSSWGGSTGVVRKREELCGR | -0.44 ± 0.5 |
| WSVSASQFRSVPRSPFALSQ | -0.303 ± 0.26 |
| WSWRLPGPCLFFCAEEQLTK | 1.32 ± 0.84 |
| WTTMFAFAF | 1.42 ± 0.44 |
| WTYRQLKSAGKEHVYFLKVR | -0.031 ± 1.2 |
| WVNCLFIYWFCFDALPIIVE | -0.616 ± 0.4 |
| WVPMDVF | 1.61 ± 0.35 |
| WVQFLDMGAVMKIWLVKCFP | -0.485 ± 1.1 |

| Substance | amyloid nucleation score |
| --- | --- |
| WVSMKVVGVKHSGLDWRIL | 0.012 ± 0.52 |
| WVVVDTLVRTGGCCWGYWKT | 1.91 ± 0.27 |
| WVWDCFHDCVPYMGRTGLVA | -0.56 ± 0.93 |
| WVWDGDIGGWNVKPFHRVRG | 0.121 ± 0.58 |
| WWDHVWGVR | 0.31 ± 0.75 |
| WWFRK | 0.654 ± 1.1 |
| WYAGFTGRFRSLFFIISIFG | -0.529 ± 1 |
| WYGVFALMIGRSIFD | -0.027 ± 0.27 |
| WYRYEPLVMTRQMSGVGPMR | 0.124 ± 0.33 |
| WYVLARGMYENTLVGSCSMV | 6.13 ± 0.088 |
| YALRVSR | -0.346 ± 0.43 |
| YAPWGGKNSRYAGSVM | 0.701 ± 0.33 |
| YARVGKRNGSRNPYFINWGR | -0.733 ± 1.3 |
| YATTD | -0.776 ± 0.58 |
| YAVRYFETVVLQGIEVIPES | 0.205 ± 0.6 |
| YAYMVLVVPRDSVLEESECR | -0.087 ± 0.78 |
| YCDAYPGRKTEILVVQLF | 5.6 ± 0.064 |
| YCGSTWASVWGPIICPRYRA | 0.208 ± 0.33 |
| YCMCCNNRVLMVYHCTQVSA | inactive |
| YCSHMLRMYFSEDRPLAQLM | -0.399 ± 0.74 |
| YCSKRFLVKRNFLLFYNCDF | 1.03 ± 0.5 |
| YDLGMLLF | 0.812 ± 0.77 |
| YDWNNLDVLLHCLFFGDKRR | -0.021 ± 0.26 |
| YEALQ | -0.703 ± 1 |
| YEFTYLWNNKVLLGLCCYGG | 4 ± 0.13 |

| Substance | amyloid nucleation score |
| --- | --- |
| YEKSFGTYTM | -0.045 ± 0.28 |
| YEKVSDQGNLGLASIYLAGK | -0.159 ± 0.22 |
| YESCRVHVSIIYPPASGHRA | 2.9 ± 0.12 |
| YESRCGWASRNFSLSENQNS | inactive |
| YFAPFRGTSWFTRSCN | -0.011 ± 0.79 |
| YFAVL | inactive |
| YFCILGSNDSNRIGWPRRST | 0.101 ± 0.42 |
| YFDLWALSVLCCFFGVNSPF | 5.69 ± 0.087 |
| YFDWLGCLLTWQRKYVQT | -0.048 ± 0.93 |
| YFLSHRCTGGLPIS | -0.028 ± 0.9 |
| YFSHTSWLYFSTPFIVVVRV | 0.25 ± 0.97 |
| YFSKICRSLFDM | 0.906 ± 1.1 |
| YFSKTISFLFSFNSCYEFIK | 1.19 ± 0.44 |
| YFSLFYCKVSGESTLYFCGH | 5.88 ± 0.066 |
| YFSVHF | 2.29 ± 0.15 |
| YFWLNTNTLCSYWRMRHWVS | 0.524 ± 0.61 |
| YGCVCGSDNTHWNYMLVNNH | 7.222 ± 0.051 |
| YGFRQGTTSDNGTFTRIVHM | -0.336 ± 0.5 |
| YGHLVYTDHVWRRFETVKG | 0.661 ± 0.84 |
| YGLSSGFLYADLEDVPALLW | 0.681 ± 0.45 |
| YGPGWTRWLENLSLYSMYEP | -0.102 ± 1.5 |
| YGPSNYTIAQSS | -0.234 ± 0.43 |
| YGRQG | 0.123 ± 0.49 |
| YGSLFED | 0.108 ± 0.77 |
| YGSLIHMIRNEGLNIGGKSA | -0.51 ± 0.4 |

| Substance | amyloid nucleation score |
| --- | --- |
| YHGIPFCMFFRVYAVR | 0.216 ± 1.4 |
| YHWVMTASVCSPGELNYRSN | 0.363 ± 0.78 |
| YIAVGV | 0.015 ± 0.62 |
| YIGECLRKLIRCAHKDCEGY | -1.49 ± 1.2 |
| YIIVFDVNWFVKFGCFPRGS | inactive |
| YIIVLA | 1.28 ± 0.61 |
| YIIWFPFSKLVLMRYHRSWG | -0.005 ± 0.22 |
| YILLLFSVVWIKKFGDCSCA | -0.048 ± 0.35 |
| YIMILYRKGMFILRVFSLLL | -0.293 ± 0.24 |
| YIMSGRFTNY | 2.13 ± 0.28 |
| YISKSCRWSRTASSNVCIFI | 0.022 ± 0.33 |
| YKAKGRNAVS | -0.689 ± 1.6 |
| YKIGLT | -0.227 ± 0.48 |
| YKLPAAIDRMIVVQCNRPSI | -0.246 ± 0.61 |
| YKSCCVGITPM | -0.551 ± 0.49 |
| YKSVLHSSRSGGAYGVVKSL | -0.038 ± 0.45 |
| YKWIDRMVDERQLMSSKRQW | 0.099 ± 0.66 |
| YKWLLAGGNTKCSKVRNAYW | -0.356 ± 0.39 |
| YKYINSVQIYEHV | 4.19 ± 0.13 |
| YLASFMNLAISVGLVDGLCG | -1.29 ± 1.7 |
| YLFHMKARCMLFHKLLTYSR | inactive |
| YLFRLVTVFNVVKATLVVTV | -0.289 ± 0.92 |
| YLGSGCRFETSYLDATFPVS | 0.387 ± 1 |
